B1: bone morphogenetic protein 2 (BMP2), mature part, wild type (ligand, human)
chain: MAQAKHKQRKRLKSSCKRHPLYVDFSDVGWNDWIVAPPGYHAFYCHGECPFPLADHLNSTNHAIVQTLVNSVNSKIPKACCVPTELSAISMLYLDENEKVVLKNYQDMVVEGCGCR
modifications: biotin (sulfo-NHS-LC-biotin) where immobilised
notes: N-terminal Met-Ala added to the mature part; dimeric ligand; also called wtBMP2; BMP2wt; source: E. coli, isolated from inclusion bodies, renatured and purified
B2: BMP receptor II (BMPR-II) ectodomain, human (receptor, UniProt Q13873 32-150, looked up)
chain: RLCAFKDPYQQDLGIGESRISHENGTILCSKGSTCYGLWEKSKGDINLVKQGCWSHIGDPQECHYEECVVTTTPPSIQNGTYRFCCCSTDLCNVNFTENFPPPDTTPLSPPHSFNRDET
modifications: N-biotinylated (sulfo-NHS-LC-biotin) where immobilised
notes: also called hBMPR-II
B3: growth and differentiation factor 5 (GDF5), mature part (ligand)
chain: MKRQGKRPSKNLKARCSRKALHVNFKDMGWDDWIIAPLEYEAFHCEGLCEFPLRSHLEPTNHAVIQTLMNSMDPESTPPTCCVPTRLSPISILFIDSANNVVYKQYEDMVVESCGCR
modifications: biotin (sulfo-NHS-LC-biotin) where immobilised
notes: N-terminal Met-Lys added to the mature part; dimeric ligand; source: E. coli, isolated from inclusion bodies, renatured and purified
B4: bone morphogenetic protein 7 (BMP7), human (ligand, UniProt P18075 293-431, looked up)
chain: STGSKQRSQNRSKTPKNQEALRMANVAENSSSDQRQACKKHELYVSFRDLGWQDWIIAPEGYAAYYCEGECAFPLNSYMNATNHAIVQTLVHFINPETVPKPCCAPTQLNAISVLYFDDSSNVILKKYRNMVVRACGCH
modifications: biotin (sulfo-NHS-LC-biotin) where immobilised
notes: human BMP7, CHO-cell derived, bought; dimeric ligand; also called hBMP7; source: bought: R&D Systems (CHO-cell derived)

Columns and labels:
Settings in all cases: both partners purified
[1] = target: B2; test: SPR; Biacore 2000; receptor ectodomains as analyte over biotinylated ligands on streptavidin-coated CM5 chips; HBS500, 25°C, 10 μl/min; apparent affinities, 1:1 interaction
[2] = target: B2; test: SPR; Biacore 2000; ligands as analyte over biotinylated receptor ectodomains (about 200 RU) on streptavidin-coated CM5 chips; HBS500 (10 mM HEPES pH 7.4, 500 mM NaCl, 3.4 mM EDTA, 0.005% P20), 25°C, 10 μl/min; apparent affinities, 1:2 interaction with avidity
[3] = target: B4; test: SPR; Biacore 2000; receptor ectodomains as analyte over biotinylated ligands on streptavidin-coated CM5 chips; HBS500, 25°C, 10 μl/min; apparent affinities, 1:1 interaction
[4] = target: B4; test: SPR; Biacore 2000; ligands as analyte over biotinylated receptor ectodomains (about 200 RU) on streptavidin-coated CM5 chips; HBS500 (10 mM HEPES pH 7.4, 500 mM NaCl, 3.4 mM EDTA, 0.005% P20), 25°C, 10 μl/min; apparent affinities, 1:2 interaction with avidity
[5] = target: T1, activin receptor type II (ActR-II) ectodomain, human (human, UniProt P27037 18-135, N-biotinylated (sulfo-NHS-LC-biotin) where immobilised); test: SPR; Biacore 2000; receptor ectodomains as analyte over biotinylated ligands on streptavidin-coated CM5 chips; HBS500, 25°C, 10 μl/min; apparent affinities, 1:1 interaction
T1 construct: also called hActR-II

[6] = target: T1, activin receptor type II (ActR-II) …; test: SPR; Biacore 2000; ligands as analyte over biotinylated receptor ectodomains (about 200 RU) on streptavidin-coated CM5 chips; HBS500 (10 mM HEPES pH 7.4, 500 mM NaCl, 3.4 mM EDTA, 0.005% P20), 25°C, 10 μl/min; apparent affinities, 1:2 interaction with avidity

Binder: B1
Kd [1]: 13000 nM
KD (kin) [2]: 45 nM
Kd [2]: 59 nM

Binder: B2
Kd [3]: 9100 nM
koff [3]: > 0.1 s⁻¹
Kd [4]: 40 nM
koff [4]: 0.024 s⁻¹
kon [4]: 960000 M⁻¹ s⁻¹

Binder: B3
Kd [1]: 60000 nM
KD (kin) [2]: 36 nM
Kd [2]: 46 nM

Binder: B4
Kd [5]: 880 nM
koff [5]: > 0.1 s⁻¹
KD (kin) [6]: 5.1 nM
Kd [6]: 8 nM
koff [6]: 0.0062 s⁻¹
kon [6]: 1.2e+06 M⁻¹ s⁻¹
KD (kin) [2]: 25 nM
